This is an account of results in IntAct's records for PubMed 15350535.

This assay addresses PAK1, Q13153-2.

PAK1, Q13153-2, sequence (Q13153 other isoform, or with tags, fused parts or gaps): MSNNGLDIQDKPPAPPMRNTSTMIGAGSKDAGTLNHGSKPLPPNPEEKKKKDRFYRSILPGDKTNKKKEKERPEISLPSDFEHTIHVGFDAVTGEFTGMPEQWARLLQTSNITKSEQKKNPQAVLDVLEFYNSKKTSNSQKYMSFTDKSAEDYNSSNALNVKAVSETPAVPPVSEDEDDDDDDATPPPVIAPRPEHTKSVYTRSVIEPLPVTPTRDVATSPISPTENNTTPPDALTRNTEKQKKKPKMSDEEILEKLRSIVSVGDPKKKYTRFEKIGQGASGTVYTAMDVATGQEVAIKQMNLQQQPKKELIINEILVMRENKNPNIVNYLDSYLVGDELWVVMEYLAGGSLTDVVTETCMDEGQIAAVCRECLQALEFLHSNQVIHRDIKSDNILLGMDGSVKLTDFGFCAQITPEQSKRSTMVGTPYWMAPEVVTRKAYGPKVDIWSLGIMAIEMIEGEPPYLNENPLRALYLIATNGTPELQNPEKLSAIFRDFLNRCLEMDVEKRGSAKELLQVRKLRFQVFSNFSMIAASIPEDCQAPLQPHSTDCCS

As to “Rho-related GTP-binding protein RhoU (Homo sapiens), Q7L0Q8 T63N”, the “effect of a mutation on the interaction” value is given as “decreasing interaction”.
